From patent US20210277068A1 (SHANXI KANGBAO BIOLOGICAL PRODUCT, published 2021)
Several values for one entry are separate records, joined by “and”; a condition that tells them apart may be missing. Identical values can stand only once. Ends that are not written are not given here. * marks the point of attachment. Stearoyl = CCCCCCCCCCCCCCCCCC(=O)*; Palmitoyl = CCCCCCCCCCCCCCCC(=O)*

Experiments:
[1] = molecular target: T1, N39 (HIV-1, N-terminal acetyl (Ac-); C-terminal amide (-NH2)); test: circular dichroism temperature scan at 220 nm of the 1:1 mixture with N39, 10 µM each in PBS pH 7.2
T1 peptide: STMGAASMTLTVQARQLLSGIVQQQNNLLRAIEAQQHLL

[2] = molecular target: gp41 of the envelope protein (Env) of HIV-1 strain HXB2 (HIV-1 strain HXB2, UniProt P04578 33-856); test: cell-based or functional assay
[3] = molecular target: gp41 of the envelope protein (Env) of the D36G mutant of HIV-1 strain NL4-3 (HIV-1 strain NL4-3); test: cell-based or functional assay
[4] = molecular target: gp41 of the envelope protein of HIV-1 strain JRCSF (HIV-1 strain JRCSF); test: cell-based or functional assay
[5] = molecular target: T1, N39; test: circular dichroism of the 1:1 mixture with N39, 10 µM each in PBS pH 7.2
[6] = molecular target: T1, N39; test: circular dichroism temperature scan at 220 nm of the 1:1 mixture with N39, 10 µM each in PBS pH 7.2; difference against LP-52

Ac-IEELLKKAEEQQKKNEEELKKLEK(Stearoyl)-NH2 [LP-90]
Tm value of the complex [1]: 71.1 °C

B1: LP-50 (peptide)
peptide: Ac-YTSLIEELIKKSEEQQKKNEEELKKLEK(Palmitoyl)-NH2
SMILES: CCCCCCCCCCCCCCCC(=O)NCCCC[C@H](NC(=O)[C@H](CCC(=O)O)NC(=O)[C@H](CC(C)C)NC(=O)[C@H](CCCCN)NC(=O)[C@H](CCCCN)NC(=O)[C@H](CC(C)C)NC(=O)[C@H](CCC(=O)O)NC(=O)[C@H](CCC(=O)O)NC(=O)[C@H](CCC(=O)O)NC(=O)[C@H](CC(N)=O)NC(=O)[C@H](CCCCN)NC(=O)[C@H](CCCCN)NC(=O)[C@H](CCC(N)=O)NC(=O)[C@H](CCC(N)=O)NC(=O)[C@H](CCC(=O)O)NC(=O)[C@H](CCC(=O)O)NC(=O)[C@H](CO)NC(=O)[C@H](CCCCN)NC(=O)[C@H](CCCCN)NC(=O)[C@@H](NC(=O)[C@H](CC(C)C)NC(=O)[C@H](CCC(=O)O)NC(=O)[C@H](CCC(=O)O)NC(=O)[C@@H](NC(=O)[C@H](CC(C)C)NC(=O)[C@H](CO)NC(=O)[C@@H](NC(=O)[C@H](Cc1ccc(O)cc1)NC(C)=O)[C@@H](C)O)[C@@H](C)CC)[C@@H](C)CC)C(N)=O
notes: LP-40 with EE**KK ion pairs introduced; also called P50 with C16
Tm value of the complex [1]: 63.3 °C | IC50 for inhibiting cell fusion (HXB2-cell fusion) [2]: 21 pM | IC50 for inhibiting pseudovirus (entry of NL4-3) [3]: 7 pM | IC50 for inhibiting replicative virus (replication of JRCSF) [4]: 23 pM

Ac-WEQKIEELLKKAEEQQKKNEEELKKLEK(Stearoyl)-NH2 [LP-80]
Tm value of the complex [1]: 79 °C | IC50 for inhibiting HIV-1 strain NL4-3 [3]: 2 pM | IC50 for inhibiting HIV-1 strain JRCSF [4]: 2 pM

B2: LP-92 (peptide)
peptide: Ac-IEELLKKAEEQQKKNEEELKK(Stearoyl)-NH2
SMILES: CCCCCCCCCCCCCCCCCC(=O)NCCCC[C@H](NC(=O)[C@H](CCCCN)NC(=O)[C@H](CC(C)C)NC(=O)[C@H](CCC(=O)O)NC(=O)[C@H](CCC(=O)O)NC(=O)[C@H](CCC(=O)O)NC(=O)[C@H](CC(N)=O)NC(=O)[C@H](CCCCN)NC(=O)[C@H](CCCCN)NC(=O)[C@H](CCC(N)=O)NC(=O)[C@H](CCC(N)=O)NC(=O)[C@H](CCC(=O)O)NC(=O)[C@H](CCC(=O)O)NC(=O)[C@H](C)NC(=O)[C@H](CCCCN)NC(=O)[C@H](CCCCN)NC(=O)[C@H](CC(C)C)NC(=O)[C@H](CC(C)C)NC(=O)[C@H](CCC(=O)O)NC(=O)[C@H](CCC(=O)O)NC(=O)[C@@H](NC(C)=O)[C@@H](C)CC)C(N)=O
Tm value of the complex [1]: 55.1 °C

Ac-WEQKIEELLKKAEEQQKKNEEELKKLEK(Palmitoyl)-NH2 [LP-52]
Tm value of the complex [1]: 79.1 °C | helix content of the complex [5]: 63.8%

B3: LP-69 (peptide)
peptide: Ac-IEELLKKAEEQQKKNEEELKK(Palmitoyl)-NH2
SMILES: CCCCCCCCCCCCCCCC(=O)NCCCC[C@H](NC(=O)[C@H](CCCCN)NC(=O)[C@H](CC(C)C)NC(=O)[C@H](CCC(=O)O)NC(=O)[C@H](CCC(=O)O)NC(=O)[C@H](CCC(=O)O)NC(=O)[C@H](CC(N)=O)NC(=O)[C@H](CCCCN)NC(=O)[C@H](CCCCN)NC(=O)[C@H](CCC(N)=O)NC(=O)[C@H](CCC(N)=O)NC(=O)[C@H](CCC(=O)O)NC(=O)[C@H](CCC(=O)O)NC(=O)[C@H](C)NC(=O)[C@H](CCCCN)NC(=O)[C@H](CCCCN)NC(=O)[C@H](CC(C)C)NC(=O)[C@H](CC(C)C)NC(=O)[C@H](CCC(=O)O)NC(=O)[C@H](CCC(=O)O)NC(=O)[C@@H](NC(C)=O)[C@@H](C)CC)C(N)=O
notes: Residues 1-21 follow from the statement that LP-69 is LP-65 (24 residues) without its C-terminal LEK
Tm value of the complex [1]: 51 °C | Tm value lower than that of the LP-52 by [6]: 28.1 °C

Ac-WEQKIEELLKKAEEQQKKNEEELKK(Stearoyl)-NH2 [LP-91]
Tm value of the complex [1]: 61 °C

Ac-YTSLIHSLIEESQNQQEKNEQELLELDK (not fully specified (residue 28, C-terminus), also called T-20-based lipopeptide) [LP-40]
Tm value of the complex [1]: 51.3 °C | helix content of the complex [5]: 57.7%

B4: LP-89 (peptide)
peptide: Ac-KIEELLKKAEEQQKKNEEELKKLEK(Stearoyl)-NH2
SMILES: CCCCCCCCCCCCCCCCCC(=O)NCCCC[C@H](NC(=O)[C@H](CCC(=O)O)NC(=O)[C@H](CC(C)C)NC(=O)[C@H](CCCCN)NC(=O)[C@H](CCCCN)NC(=O)[C@H](CC(C)C)NC(=O)[C@H](CCC(=O)O)NC(=O)[C@H](CCC(=O)O)NC(=O)[C@H](CCC(=O)O)NC(=O)[C@H](CC(N)=O)NC(=O)[C@H](CCCCN)NC(=O)[C@H](CCCCN)NC(=O)[C@H](CCC(N)=O)NC(=O)[C@H](CCC(N)=O)NC(=O)[C@H](CCC(=O)O)NC(=O)[C@H](CCC(=O)O)NC(=O)[C@H](C)NC(=O)[C@H](CCCCN)NC(=O)[C@H](CCCCN)NC(=O)[C@H](CC(C)C)NC(=O)[C@H](CC(C)C)NC(=O)[C@H](CCC(=O)O)NC(=O)[C@H](CCC(=O)O)NC(=O)[C@@H](NC(=O)[C@H](CCCCN)NC(C)=O)[C@@H](C)CC)C(N)=O
Tm value of the complex [1]: 70 °C

B5: LP-65 (peptide)
peptide: Ac-IEELLKKAEEQQKKNEEELKKLEK(Palmitoyl)-NH2
SMILES: CCCCCCCCCCCCCCCC(=O)NCCCC[C@H](NC(=O)[C@H](CCC(=O)O)NC(=O)[C@H](CC(C)C)NC(=O)[C@H](CCCCN)NC(=O)[C@H](CCCCN)NC(=O)[C@H](CC(C)C)NC(=O)[C@H](CCC(=O)O)NC(=O)[C@H](CCC(=O)O)NC(=O)[C@H](CCC(=O)O)NC(=O)[C@H](CC(N)=O)NC(=O)[C@H](CCCCN)NC(=O)[C@H](CCCCN)NC(=O)[C@H](CCC(N)=O)NC(=O)[C@H](CCC(N)=O)NC(=O)[C@H](CCC(=O)O)NC(=O)[C@H](CCC(=O)O)NC(=O)[C@H](C)NC(=O)[C@H](CCCCN)NC(=O)[C@H](CCCCN)NC(=O)[C@H](CC(C)C)NC(=O)[C@H](CC(C)C)NC(=O)[C@H](CCC(=O)O)NC(=O)[C@H](CCC(=O)O)NC(=O)[C@@H](NC(C)=O)[C@@H](C)CC)C(N)=O
notes: N-terminally truncated, based on LP-52; 24 amino acids
Tm value of the complex [1]: > 70 °C and 72.1 °C | helix content of the complex [5]: 63%
